The Kd is the free concentration of one partner at which half of the binding sites on the other are occupied at equilibrium, for simple one-to-one binding. Read a low Kd as higher affinity.

In this assay the target is plasminogen (UniProt P00747). Description: SPR. For orientation: In SPR one partner is held on a chip, and binding of the other changes the refractive index at the surface.
Sequence of plasminogen (P00747 20-810): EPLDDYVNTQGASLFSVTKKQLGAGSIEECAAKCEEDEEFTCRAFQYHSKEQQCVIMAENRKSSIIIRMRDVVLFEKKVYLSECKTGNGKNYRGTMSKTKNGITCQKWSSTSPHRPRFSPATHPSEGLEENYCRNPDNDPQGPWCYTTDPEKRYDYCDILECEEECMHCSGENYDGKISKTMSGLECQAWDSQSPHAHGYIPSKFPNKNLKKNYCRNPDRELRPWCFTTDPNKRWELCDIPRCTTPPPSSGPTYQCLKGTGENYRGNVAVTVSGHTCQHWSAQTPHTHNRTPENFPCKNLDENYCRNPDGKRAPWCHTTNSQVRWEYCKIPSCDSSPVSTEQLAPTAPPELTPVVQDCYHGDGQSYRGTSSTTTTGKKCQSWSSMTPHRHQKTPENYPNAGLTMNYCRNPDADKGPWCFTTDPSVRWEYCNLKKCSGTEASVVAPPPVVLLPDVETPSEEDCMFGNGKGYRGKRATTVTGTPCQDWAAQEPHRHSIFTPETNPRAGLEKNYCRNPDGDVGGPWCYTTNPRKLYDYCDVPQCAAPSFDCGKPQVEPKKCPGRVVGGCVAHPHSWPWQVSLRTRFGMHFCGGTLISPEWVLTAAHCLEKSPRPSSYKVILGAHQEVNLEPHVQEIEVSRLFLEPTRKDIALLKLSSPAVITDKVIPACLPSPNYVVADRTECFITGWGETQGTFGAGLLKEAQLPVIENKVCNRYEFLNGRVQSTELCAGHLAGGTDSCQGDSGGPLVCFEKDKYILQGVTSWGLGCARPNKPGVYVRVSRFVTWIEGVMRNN

On to “rGAPDH C-terminal mutant (K336A) (from UniProt E4QS33 1-336) (enzyme)”, for which the dissociation constant (Kd) is 600 nM.

The values are drawn from paper PMC10269845.
